Laboratory results from paper PMC2171753 (The Journal of Cell Biology, 2005).
Numbering of substitutions follows the chain as printed. Names may count otherwise.

B1: full-length EB1 F216A (natural protein, human, UniProt Q15691 1-268, looked up)
chain: MAVNVYSTSVTSDNLSRHDMLAWINESLQLNLTKIEQLCSGAAYCQFMDMLFPGSIALKKVKFQAKLEHEYIQNFKILQAGFKRMGVDKIIPVDKLVKGKFQDNFEFVQWFKKFFDANYDGKDYDPVAARQGQETAVAPSLVAPALNKPKKPLTSSSAAPQRPISTQRTAAAPKAGPGVVRKNPGVGNGDDEAAELMQQVNVLKLTVEDLEKERDAYFGKLRNIELICQENEGENDPVLQRIVDILYATDEGFVIPDEGGPQEEQEEY
B2: full-length EB1 F218A (natural protein, human, UniProt Q15691 1-268, looked up)
chain: B1 chain with A216F, F218A
B3: full-length EB1 Y217A (natural protein, human, UniProt Q15691 1-268, looked up)
chain: B1 chain with A216F, Y217A
B4: full-length EB1 K220A (natural protein, human, UniProt Q15691 1-268, looked up)
chain: B1 chain with A216F, K220A
B5: full-length EB1 E225A (natural protein, human, UniProt Q15691 1-268, looked up)
chain: B1 chain with A216F, E225A
B6: GST-EB1_(185-255) (domain or fragment, human, UniProt Q15691 185-255, looked up)
chain: GVGNGDDEAAELMQQVNVLKLTVEDLEKERDFYFGKLRNIELICQENEGENDPVLQRIVDILYATDEGFVI

Key:
SEC = molecular target: the molecule itself; assay: SEC
[1] = molecular target: APC-GFP fusion construct, APC residues 2739–2831 (human, UniProt P25054 2739-2831); assay: pull-down
[2] = molecular target: APC-GFP fusion construct, APC residues 2760–2831 (human, UniProt P25054 2760-2831); assay: pull-down
GFP-APC_(2744-2843) = GFP-APC_(2744-2843) (human, UniProt P25054 2744-2843); assay: pull-down
Chain of GFP-APC_(2744-2843) (P25054 2744-2843): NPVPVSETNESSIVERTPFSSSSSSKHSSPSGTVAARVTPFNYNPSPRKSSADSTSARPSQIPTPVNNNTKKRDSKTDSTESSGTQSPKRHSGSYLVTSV

GST-EB1_(185-255) = molecular target: B6; assay: pull-down

| Binder | stoichiometry N (SEC) | other results |
| --- | --- | --- |
| B1 | 2 |  |
| B2 | 2 |  |
| B3 | 2 |  |
| B4 | 2 |  |
| B5 | 2 |  |
| B6 |  | binding result [1]: binds; binding result [2]: binds; binding result (GFP-APC_(2744-2843)): binds |
| TPFNYNPSPRKSSADSTSARPSQIPTPVNNNTKKRDSKTDSTESSGTQSP (domain or fragment, human, UniProt P25054 2782-2831, looked up) [APC-GFP fusion construct, APC residues 2782–2831] |  | binding result (GST-EB1_(185-255)): binds |
